Results published in paper PMC11232276.

Assays:
[1] = biological target: wildtype (WT) α-synuclein fibrils (human) (UniProt P37840); experiment: flow-induced dispersion analysis
[2] = biological target: α-synuclein oligomers (human); experiment: flow-induced dispersion analysis
[3] = biological target: wildtype (WT) α-synuclein fibrils (human) (UniProt P37840); experiment: SPR
[4] = biological target: wildtype (WT) α-synuclein fibrils (human) (UniProt P37840); experiment: native gel or EMSA

Kd [1]	Kd [2]	apparent KD, strong binding of the two-phase model [3]	apparent KD, weak binding of the two-phase model [3]	percent of soluble, unbound BRICHOS [4]	Substance
2300 nM	78.2 nM	–	–	–	BRICHOS-Alexa488 (rh Bri2 BRICHOS R221E labelled with Alexa-488) (from UniProt Q9Y287 113-231) (domain or fragment)
–	–	22 nM	350000 nM	90.6%	recombinant human (rh) Bri2 BRICHOS R221E monomer (from UniProt Q9Y287 113-231) (domain or fragment)
